Data as given in patent US20240132578A1.

Key:
Test in all cases: cell-based or functional assay
[1] = molecular target: HIV-1 Env of pseudovirus MGRM-D-026 (HIV-1)
[2] = molecular target: HIV-1 Env of pseudovirus MGRM-F1-006 (HIV-1)
[3] = molecular target: HIV-1 Env of pseudovirus MGRM-F1-008 (HIV-1)
[4] = molecular target: HIV-1 92RW021 envelope glycoprotein (Env) on pseudovirus (HIV-1 (clade A))
[5] = molecular target: HIV-1 92TH021 envelope (Env) on pseudovirus (HIV-1)
[6] = molecular target: HIV-1 Env of isolate 92UG001 (clade D pseudovirus) (HIV-1)
[7] = molecular target: HIV-1 Env of isolate MGRM-A-008 (clade A pseudovirus) (HIV-1)
[8] = molecular target: HIV-1 Env of isolate MGRM-A-009 (clade A pseudovirus) (HIV-1)
[9] = molecular target: HIV-1 Env of isolate MGRM-A-010 (clade A pseudovirus) (HIV-1)
[10] = molecular target: HIV-1 Env of isolate MGRM-A-014 (clade A pseudovirus) (HIV-1)
[11] = molecular target: HIV-1 Env of isolate MGRM-D-019 (clade D pseudovirus) (HIV-1)
[12] = molecular target: HIV-1 Env of pseudovirus MGRM-F1-014 (clade F) (HIV-1)
[13] = molecular target: HIV-1 Env of pseudovirus MGRM-F1-015 (clade F) (HIV-1)
[14] = molecular target: HIV-1 Env of pseudovirus MGRM-F1-023 (clade F) (HIV-1)
[15] = molecular target: HIV-1 Env of pseudovirus MGRM-G-015 (HIV-1)
[16] = molecular target: HIV-1 MGRM-AG-006 Env (pseudovirus) (HIV-1)
[17] = molecular target: HIV-1 MGRM-AG-011 Env (pseudovirus) (HIV-1)
[18] = molecular target: HIV-1 envelope glycoprotein (Env) of isolate MGRM-C-005 (HIV-1)
[19] = molecular target: HIV-1 envelope glycoprotein (Env) of isolate MGRM-C-009 (HIV-1)
[20] = molecular target: HIV-1 envelope glycoprotein (Env) of isolate MGRM-C-014 (HIV-1)
[21] = molecular target: HIV-1 Env of isolate MGRM-C-020 (subtype C), on pseudovirus (HIV-1)
[22] = molecular target: HIV-1 Env of isolate MGRM-C-023 (subtype C), on pseudovirus (HIV-1)
[23] = molecular target: HIV-1 Env of isolate MGRM-G-015 (subtype G) (HIV-1)
[24] = molecular target: HIV-1 Env of isolate MGRM-G-016 (subtype G) (HIV-1)
[25] = molecular target: HIV-1 Env of isolate MGRM-G-017 (subtype G) (HIV-1)
[26] = molecular target: HIV-1 Env of isolate MGRM-G-027 (subtype G) (HIV-1)
[27] = molecular target: HIV-1 Env of pseudovirus isolate APV-13 (clade B) (HIV-1)
[28] = molecular target: HIV-1 Env of isolate 92RW008 (pseudovirus) (HIV-1)
[29] = molecular target: HIV-1 Env of isolate 92UG001 (pseudovirus) (HIV-1)
[30] = molecular target: HIV-1 Env of isolate CAAN.A2 (HIV-1)
[31] = molecular target: HIV-1 Env of isolate MGRM-A-013 (subtype A) (HIV-1)
[32] = molecular target: HIV-1 Env of isolate MGRM-D-002 (pseudovirus) (HIV-1)
[33] = molecular target: HIV-1 Env of isolate MGRM-D-020 (pseudovirus) (HIV-1)
[34] = molecular target: HIV-1 JR-CSF Env K421A (HIV-1 (isolate JR-CSF)) (UniProt P20871)
[35] = molecular target: HIV-1 JR-CSF Env N411A (HIV-1 (isolate JR-CSF)) (UniProt P20871)
[36] = molecular target: HIV-1 JR-CSF Env Q422A (HIV-1 (isolate JR-CSF)) (UniProt P20871)
[37] = molecular target: aMLV envelope protein on pseudovirus (negative control)

Substance	IC50, pseudovirus neutralization [1] [µg/mL]	IC50, pseudovirus neutralization [2] [µg/mL]	IC50, pseudovirus neutralization [3] [µg/mL]	IC50, single-round pseudovirus neutralization [21] [µg/mL]	IC50, single-round pseudovirus neutralization [22] [µg/mL]	IC50 (µg/mL), pseudovirus neutralization [23] [µg/mL]	IC50 (µg/mL), pseudovirus neutralization [24] [µg/mL]	IC50 (µg/mL), pseudovirus neutralization [25] [µg/mL]	IC50 (µg/mL), pseudovirus neutralization [26] [µg/mL]	IC50, pseudovirus neutralization [27] [µg/mL]	IC50 (µg/mL), pseudovirus neutralization [28] [µg/mL]	IC50 (µg/mL), pseudovirus neutralization [29] [µg/mL]	IC50 (µg/mL), pseudovirus neutralization [30] [µg/mL]	IC50, pseudovirus neutralization [31] [µg/mL]	IC50 (µg/mL), pseudovirus neutralization [32] [µg/mL]	IC50 (µg/mL), pseudovirus neutralization [33] [µg/mL]	also measured
PGT-141 (4964_G22; 4993_K13) (antibody)	32.5	8.99	0.193														
PGT-145 (4995_P16) (antibody)	0.41	13.6	0.228														
1495_C14 (PGC14) (antibody)																	IC50 (µg/ml), pseudovirus neutralization [4]: > 50 µg/mL; neutralization IC50 [5]: > 50 µg/mL; IC50, pseudovirus neutralization [6]: > 50 µg/mL; IC50 (µg/ml), pseudovirus neutralization [7]: > 50 µg/mL; IC50 (µg/ml), pseudovirus neutralization [8]: > 50 µg/mL; IC50 (µg/ml), pseudovirus neutralization [9]: > 50 µg/mL; IC50 (µg/ml), pseudovirus neutralization [10]: > 50 µg/mL; IC50, pseudovirus neutralization [11]: > 50 µg/mL; IC50 [12]: > 50 µg/mL; IC50 [13]: > 50 µg/mL; IC50 [14]: > 50 µg/mL; IC50 (µg/ml), pseudovirus neutralization [15]: > 50 µg/mL; IC50 (µg/ml), pseudovirus neutralization [16]: > 50 µg/mL; IC50 (µg/ml), pseudovirus neutralization [17]: > 50 µg/mL; IC50 (µg/ml), pseudovirus neutralization [18]: > 50 µg/mL; IC50 (µg/ml), pseudovirus neutralization [19]: > 50 µg/mL; IC50 (µg/ml), pseudovirus neutralization [20]: > 50 µg/mL
2F5 (antibody)																	IC50 (µg/ml), pseudovirus neutralization [4]: 4.16 µg/mL; neutralization IC50 [5]: 1.51 µg/mL; IC50, pseudovirus neutralization [6]: 13 µg/mL; IC50 (µg/ml), pseudovirus neutralization [7]: > 50 µg/mL; IC50 (µg/ml), pseudovirus neutralization [8]: 9.4 µg/mL; IC50 (µg/ml), pseudovirus neutralization [9]: 20.8 µg/mL; IC50 (µg/ml), pseudovirus neutralization [10]: 1.43 µg/mL; IC50, pseudovirus neutralization [11]: 0.14 µg/mL; IC50 [12]: 15.1 µg/mL; IC50 [13]: 0.1 µg/mL; IC50 [14]: 1.78 µg/mL; IC50 (µg/ml), pseudovirus neutralization [15]: 0.43 µg/mL; IC50 (µg/ml), pseudovirus neutralization [16]: 0.85 µg/mL; IC50 (µg/ml), pseudovirus neutralization [17]: > 50 µg/mL; IC50 (µg/ml), pseudovirus neutralization [18]: > 50 µg/mL; IC50 (µg/ml), pseudovirus neutralization [19]: > 50 µg/mL; IC50 (µg/ml), pseudovirus neutralization [20]: > 50 µg/mL
VRC01 (antibody)	0.435	2.86	1.11	0.396	0.077	0.548	0.063	0.124	0.36	0.657							
4995_P16 (PGT-145) (antibody)				0.712	0.201	10.5	0.081	0.205	0.433	0.337							
5136_H01 (PGT-131) (antibody)											1.01	> 50	> 50	> 50	11.2	> 50	Fold IC50 increase relative to wild-type (pseudovirus neutralization) [34]: 11 fold; Fold IC50 increase relative to wild-type (pseudovirus neutralization) [35]: 0.6 fold; Fold IC50 increase relative to wild-type (pseudovirus neutralization) [36]: 1.9 fold
b12 (antibody)																	IC50 (µg/ml), pseudovirus neutralization [4]: > 50 µg/mL; neutralization IC50 [5]: 9.99 µg/mL; IC50, pseudovirus neutralization [6]: 1.01 µg/mL; IC50 (µg/ml), pseudovirus neutralization [7]: > 50 µg/mL; IC50 (µg/ml), pseudovirus neutralization [8]: 4.34 µg/mL; IC50 (µg/ml), pseudovirus neutralization [9]: > 50 µg/mL; IC50 (µg/ml), pseudovirus neutralization [10]: > 50 µg/mL; IC50, pseudovirus neutralization [11]: > 50 µg/mL; IC50 [12]: > 50 µg/mL; IC50 [13]: > 50 µg/mL; IC50 [14]: > 50 µg/mL; IC50 (µg/ml), pseudovirus neutralization [15]: > 50 µg/mL; IC50 (µg/ml), pseudovirus neutralization [16]: > 50 µg/mL; IC50 (µg/ml), pseudovirus neutralization [17]: > 50 µg/mL; IC50 (µg/ml), pseudovirus neutralization [18]: 2.66 µg/mL; IC50 (µg/ml), pseudovirus neutralization [19]: > 50 µg/mL; IC50 (µg/ml), pseudovirus neutralization [20]: > 50 µg/mL
PGT-144 (4970_K22) (antibody)	> 50	20.6	0.507														
5345_I01 (PGT-137) (antibody)											0.148	> 50	> 50	49.2	> 50	> 50	
4995_E20 (PGT-142) (antibody)				0.446	0.087	> 50	8.17	0.125	> 50	> 50							
5114_A19 (PGT-128) (antibody)											0.003	> 50	1.48	0.008	0.011	0.011	Fold IC50 increase relative to wild-type (pseudovirus neutralization) [34]: 2 fold; Fold IC50 increase relative to wild-type (pseudovirus neutralization) [35]: 0.7 fold; Fold IC50 increase relative to wild-type (pseudovirus neutralization) [36]: 0.2 fold
4970_K22 (PGT-144) (antibody)				1.29	0.38	> 50	> 50	9.97	> 50	> 50							
5329_C19 (PGT-136) (antibody)											> 50	> 50	> 50	> 50	> 50	> 50	IC50 (ug/mL), pseudovirus neutralization [37]: > 10 µg/mL
5343_B08 (PGT-135) (antibody)											1.42	> 50	5.15	> 50	> 50	> 50	Fold IC50 increase relative to wild-type (pseudovirus neutralization) [34]: 0.3 fold; Fold IC50 increase relative to wild-type (pseudovirus neutralization) [35]: 0.2 fold; Fold IC50 increase relative to wild-type (pseudovirus neutralization) [36]: 0.8 fold; IC50 (ug/mL), pseudovirus neutralization [37]: > 10 µg/mL
PGT-143 (4980_N08) (antibody)	44.6	12.3	0.189														
4980_N08 (PGT-143) (antibody)				0.797	0.148	> 50	7.6	0.107	> 50	> 50							
PGT-142 (4995_E20) (antibody)	12.5	12.9	0.124														
5147_N06 (PGT-130) (antibody)											0.039	> 50	> 50	> 50	0.869	24.7	Fold IC50 increase relative to wild-type (pseudovirus neutralization) [34]: 2.9 fold; Fold IC50 increase relative to wild-type (pseudovirus neutralization) [35]: 0.6 fold; Fold IC50 increase relative to wild-type (pseudovirus neutralization) [36]: 1 fold; IC50 (ug/mL), pseudovirus neutralization [37]: > 10 µg/mL
4993_K13 (PGT-141) (antibody)				1.34	0.153	> 50	4.69	0.164	> 50	> 50							
